Experiment: soluble on expression in E. coli; label from the status in PepcDB or PDB records

| Sequence | soluble on expression in E. coli |
| --- | --- |
| MTSIIKLKVFSGAKDEGPLCYLLQVDGDYILLDCGWDERFGLQYFEELKPFIPKISAVLISHPDPLHLGGLPYLVSKCGLTAPVYATVPVYKMGQMFIYDMVYSHLDVEEFEHYTLDDVDTAFEKVEQVKYNQTVVLKGDSGVHFTALPAGHMLGGSIWRICRVTGEDIVYCVDFNHKKERHLNGCSFDNFNRPHLLITGAHHISLPQMRRKDRDEQLVTKILRTVRQKGDCMIVIDTAGRVLELAHLLDQLWSNADAGLSTYNLVMMSHVASSVVQFAKSQLEWMNEKLFKYDSSSARYNPFTLKHVTLCHSHQELMRVRSPKVVLCSSQDMESGFSRELFLDWCSDPRNGVILTARPASFTLAAKLVNMAERANDGVLKHEDRLISLVVKKRVALEGEELLEYKRRKAERDAEETRLRMERARRQAQANESDDSDDDDIAAPIVPRHSEKDFRSFDGSENDAHTFDIMAKWDNQQKASFFKTTKKSFPMFPYIEEKVKWDDYGEVIKPEDYTVISKIDLRKGQNKDEPVVVKKREEEEEVYNPNDHVEEMPTKCVEFKNRVEVSCRIEFIEYEGISDGESTKKLLAGLLPRQIIVVHGSRDDTRDLVAYFADSGFDTTMLKAPEAGALVDASVESFIYQVALSDALLADIQFKEVSEGNSLAWIDARVMEKEAIDNMLAVGTSNLMIDDKNREEDVNDQEENGATEGEGNAEPMEIGENGSQESLAISESGKEVENGHTNDSRTKKGTKGKIRGNLILDPLPKRLIPIHQAVFVNDPKLSDFKNLLTDKGYKAEFLSGTLLINGGNCSIRRNDTGVFQMEGAFTKDYYKLRRLFYDQFAVL | not soluble |
| MTSLYLASGSPRRQELLAQLGVTFERIVTGIEEQRQPQESAQQYVVRLAREKARAGVAQTAKDLPVLGADTIVILNGEVLEKPRDAEHAAQMLRKLSGQTHQVMTAVALADSQHILDCLVVTDVTFRTLTDEDIAGYVASDEPLDKAGAYGIQGLGGCFVRKINGSYHAVVGLPLVETYELLSNFNALREKRDKHDG | soluble |
| MTSSDKSLSHDVFVYGSFQEPSVVNLILECSPVMVPAQLHGYHVYRLKGRLHACISPSENGLINGKILTGLTDSQLENLDMIEGSEYVRKTVEVVLTDTSEKKQVETYVWANKDDPNLYGEWDFEEWRRLHMDKFIEASTKFIEWKKNPDGRSREEFEKFVFDDPPTAA | soluble |
| MTSTSTPPGLARFNDLGEHAALAALHEACASTTWARRLIAARPYATADDLYTASDAAMAELTAADLAQAMAGHPPIGRPKPGDPTSAREQRGMAGASEELKADMLELNLAYQEKFGHVFLICATGRTGEQMRDAVRERIGNAPEREREIVRTELGKINRIRLARLVEEDAHALEHHHHHH | soluble |
| MTSVTDRSAHSAERSTEHTIDIHTTAGKLAELHKRREESLHPVGEDAVEKVHAKGKLTARERIYALLDEDSFVELDALAKHRSTNFNLGEKRPLGDGVVTGYGTIDGRDVCIFSQDATVFGGSLGEVYGEKIVKVQELAIKTGRPLIGINDGAGARIQEGVVSLGLYSRIFRNNILASGVIPQISLIMGAAAGGHVYSPALTDFVIMVDQTSQMFITGPDVIKTVTGEEVTMEELGGAHTHMAKSGTAHYAASGEQDAFDYVRELLSYLPPNNSTDAPRYQAAAPTGPIEENLTDEDLELDTLIPDSPNQPYDMHEVITRLLDDEFLEIQAGYAQNIVVGFGRIDGRPVGIVANQPTHFAGCLDINASEKAARFVRTCDCFNIPIVMLVDVPGFLPGTDQEYNGIIRRGAKLLYAYGEATVPKITVITRKAYGGAYCVMGSKDMGCDVNLAWPTAQIAVMGASGAVGFVYRQQLAEAAANGEDIDKLRLRLQQEYEDTLVNPYVAAERGYVDAVIPPSHTRGYIGTALRLLERKIAQLPPKKHGNVPL | soluble |
| MTTATSTEPTLELQRLELAELINRHAGEPFGPASAIDDLYLVRYTENVRSVPTLAQPALCILAQGSKSLFLGDEQYAYDPLHYMVVSVTLPLSAVRLDASPENPSLGLRMDLDPAEISQLIAESGPMLVPNRPSGRGLYVERTDAALLDALLRLLRLLDTPRDIAMLAPLFRREILYRLLRGPQGYRLYEIALANSQTHRVCQAITWLNNNFQQPLRIEDLAREVNLSTSTLHHRFKAVTSMSPLQYQKQLRLQEARRLMLNDGLEAAVAAYRVGYESPSQFSREYSRLYGAPPIRDVARLRATAV | not soluble |
| MTTEFNEIMKEINDSETIIIHRHVRPDPDAYGSQLGLKNYLKLKFPDKKIFAVGETEPSLDFIGTFDEISDDTYNEALVIVCDTANSPRISDERFNQGRLLVKIDHHPAVDQYGDINFVNDQASSTSEIIFDFISHFNDIPIIDASVARVLYLGIVGDTGRFLFNNTTSHTMGVAGQLLTFPFNHNEELNKMGEKDPKLLPFQGYVLQHFDLNEKGFCKVTITKEILEQFDIAANQASLFVNAIADIQGLKIWVFAVDEGTEIRCRIRSKGIVINDIASDFGGGGHPNASGVSVRDWAQFETLAEALNNKLLEHHHHHH | soluble |
| MTTEIKKLDPDTAIDIAYDIFLEMAGENLDPADILLFNLQFEERGGVEFVETADDWEEEIGVLIDPEEYAEVWVGLVNEQDEMDDVFAKFLISHREEDREFHVIWKK | soluble |
| MTTETQADRTQQAVGRIIGSIGVVTTQTTGRHQGILTSWVSQASFTPPGIMLAIPGEFDAYGLAGQNKAFVLNLLQEGRSVRRHFDHQPLPKDGDNPFSRLEHYSTQNGCLILAEALAYLECLVQSWSNIGDHVLVYATVQAGQVLQPNGITAIRHRKSGGQYLEHHHHHH | not soluble |
| MTTGGEDSRRTLSPGTMIVIVGPSGAGKDTLMDYAAAQLSGRPGFHFTRRVITRSCDAGGENHDAVSMHEFNQLEDAGAFAVSWQAHGLKYGIPAAVYRHLEAGDVVIANGSRSALPHFGTAFSRLKVVNIVARPDVLARRLEQRGRESRDDILRRLERSSLAVAGDFDVTTVDNSGAIEDAGKTIMQVLQQSAGSSQP | not soluble |
| MTTKEITLDENGFATEAGFITVYNYSGETREYISTSTEYLAVGVGIPACSCLDAPVTHKAGYAICRSADFNSWEYVPDHRGEIVFSTETGESKEITAPGDYPDNTTTIAPLTPYDKWDGEKWVTDTEAQHSAAVDAAEAQRQSLIDTAMASISLIQLKLQAGRKLTQAETTRLNAVLDYIDAVTATDTSTAPDVIWPELPEA | not soluble |
| MTTKFVVGYDGSAASRRALDFAMERAKAGGASIIVAHVLEWSPYSFLTPTEIEERHKRRAEEMARAETAILAPLKAELAGSGVEIETAIRYGQVADTLCDIATKSGAAQIFIARQGESGLAARVFGSVAGTLAQYAPVPCTIVP | not soluble |
| MTTPAPVPRITVLLPVYNGEQYLREALDSLLTQTYRNFSLLAVDDGSTDSSLEILRSIKDPRLSVKVNPRNRGLINTLNESLDLIQSEYVARMDADDIATPYRLEEQLAFMDAHPDVGLCGGYYERFTDTESIVVRPPTTHEDISYALIFDNVMAHNTVMFRRSVLERYRLRYDPAFAYAEDYELWVRFARYSRLANLPRVLVRYRFHPANTSSRFRHEQQIAAAKIRHIHRTNLGLEPRPGDAALHRQLFDMRFEGDLPELTAAGIWLSKLYRVGVRRCRQNPVSTFLEFNKLWYSACGRLADHGLKVFAQFLRQPFGFLGNPAYTLKLAYRCWRRIRIALEHHHHHH | not soluble |
| MTTQAPTFTQPLQSVVVLEGSTATFEAHISGFPVPEVSWFRDGQVISTSTLPGVQISFSDGRAKLTIPAVTKANSGRYSLKATNGSGQATSTAELLVKAETAPPNFVQRLQSMTVRQGSQVRLQVRVTGIPTPVVKFYRDGAEIQSSLDFQISQEGDLYSLLIAEAYPEDSGTYSVNATNSVGRATSTAELLVQGETREEF | soluble |
| MTTTGLRPRLNVRQRKDTGYLPHSSPFSLQFRPAILYSDGYLPQVPEDKNETDKIHTPRIVPQKLERTPSDTSRSRGCHCFYAGWL | not soluble |
| MTTTIEVGMLGLGTVGSGVVERLTRSAAKIEQTQGIRLHLAAVAVNHLNAPRTVQLPIGTRLTDSLTNVVCDRKIQLVIEVMGTVATAKKAIVAALNQGKAVVTANKDLIATAGPELAALAKKQGCDLFYEASVAGGIPILRTLTDSYVTDNVQAVSGIINGTANYMLSAMATGQSYEQALATAQATGYAEADPTNDVAGIDAAYKLMILSRFAFGQELSLPQIAPTGITHLSASVCRLAAENGWQIKLLAQIQRHGSGLYCRVAPVAVPVDQPLSQINGVQNAVAVQSEAIGTSLYTGPGAGSTATANSVLNDVLVAAKHLINGYRMIRNQKRSVSLTVTRFDQLPQTYLGIGPVAPEAVKYYANEADFSVKTIADDCYQITGLSAVKRKKLRANLPLTLIPIAGTTDWKQVTENSITSPINVAI | not soluble |
| MTTTPTLEVYLQPEQLKAALRKDATVGLTSNPKWLPPKYFYDARGSELFEQITALPEYFPTRTERELLRRYSGEIAEVTAPEILVELGSGSSEKTRLLLGAATRHGSLHTYVPQDVSVSALEGAAEQIGVEFPHLTVRGVVSDFTESLHHLPRGGRRTIAFLGGTLGNMVPAERAEFLSGIADVLEPGEHLLLGVGLVIDPAVLVPAYDDAAGVTAQFNRNVLQVLNTQLDADFPVDEFRHVALWDADNEWIEMRLEAERAMSIRVGELDLDVEFTAGEQLRTEISAKFTLDGIRRELAEAGFDVERTWTDPDDRFALVCAARN | soluble |
| MTTVIVANDLVGFGKVALTSSLLPIMSACQTEVLPLPTVLLSSHTGEFDNIYVRYLTVDMQGFCGQWKRLDFRVDGLVGGYFKSEEELGLVSQCLTKKRFLFLLDPIMGDNGRLYQGFDRDYVEAMKDFCQQADVIIPNLTEAALLTGSPYLEEGSYDMTTIENLLRNLSRLGPRKVILTGISFETEKIGLAYFDKETNQVIYRMRKRYQSHFYGSGDLLTAILSAGYFHNLDFLKVCDLALDFLNKVLLFTLSSGRPLKYGLCYEPLYRLFI | soluble |
| MTTVSVQIPAGWPATEERARAVQDELRARVVLDEPGPPPGTGRVTGVDVAYDDERDVVAAAAVVLDAGTLAVVAEATAVGRISFPYVPGLLAFREIPTVLAALEALPCPPGLVVCDGYGLAHPRRFGLASHLGVLTGLPTIGVAKNPFTFTHDDPDTPRGSTSPLLAGAEEVGRAVRTRDGVKPVFVSVGHRVGLGNACAHTLALTPAYRLPETTRRADALCRAALRDAAYRALEHHHHHH | not soluble |
| MTVETQLNPTQPVNQQIYRILRRDIVHCLIPPGTPLSEKEVSTRFNVSRQPVREAFIKLAENGLIQIRPQRGSYVNKISLSQVQNGCFVRQAIECAVVRRAAAMITDNQCYQLAQNLHLQHIAIERKQIDDFFQLDDDFHQKLAQIADCQLAWDTIENIKATIDRVRYMSLDHVSPPEMLLRQHHDIFSALENRDGNAVESAMTQHLQEISESVQLIRQENSGWFSEE | not soluble |
| MTVIETPVKSVICMTSLQLSNFIKLDALSHVVGITSTRHLFNKEMNERLKQGKTAKIGIEGNFDNEVIMSVNPDVIFISPFKRGGYDAMREVGIPLVPHLGYKEMTPLGQAEWIKFIGLFIGEEETANRKFAAIEKHYNELKERVAHVKKRPVLEHHHHHH | not soluble |
| MTVKSQQQIIDSFKQANQDQLFQYYDSLTIDQQQEFIDQLSTIEEPAKLISTVEQAIQFSQTNSTSRNFTQLPNEQTASTLDLSKDILQNWTELGLKAIGNGEVAVLLMAGGQGTRLGSSAPKGCFNIELPSQKSLFQIQAEKILKIEQLAQQYLKSTKKPIINWYIMTSGPTRNATESFFIENNYFGLNSHQVIFFNQGTLPCFNLQGNKILLELKNSICQSPDGNGGLYKALKDNGILDDLNSKGIKHIHMYCVDNCLVKVADPIFIGFAIAKKFDLATKVVRKRDANESVGLIVLDQDNQKPCVIEYSEISQELANKKDPQDSSKLFLRAANIVNHYYSVEFLNKMIPKWISSQKYLPFHIAKKKIPSLNLENGEFYKPTEPNGIKLEQFIFDVFPSVELNKFGCLEVDRLDEFSPLKNADGAKNDTPTTCRNHYLERSSKWVIQNGGVIDNQGLVEVDSKTSYGGEGLEFVNGKHFKNGDII | soluble |

From the DeepSol protein solubility set
